Results taken from patent US12692524B2, “Sialyltransferases and their use in producing sialylated oligosaccharides” (Chr. Hansen A/S, priority 2017, dated 2026).

B1: SiaT31: sialyltransferase of Alistipes sp. CAG:268, acc. CDC95697, SEQ ID NO: 22 (protein, listed as Alistipes sp.)
chain: MASCSDDDKEQTGFQIDDGSGFLSLDAAARSGSIAITANNSWSVTQDKDSEWLTLSTTSGAAGRTEIGIMLEANPGEARNAGLTFNSGGRTYPFVITQSAHVTADFDDADHCFYITFGTLPTLYAGLHVLSHDKPSYVFFQRSQTFRPEEFPAHAEVTIAADPSANATDEDMERMRTAMKQQILKINVEDPTAVFGLYVDDLRCGIGYDWFVAQGIDSTRVKVSMLSDGTGTYNNFYNYFGDPATAEQNWENYAAQVEALDWQHGGRFPETRMPDGFDFYEWPYYLATRPNYRLVLQDDDLLEATSPFMTERLQQMRTESKQPYELLASLPAEARQRFFRMAGFDYDAFAALFDASPKKNLVIIGTSHTSEESEAQQAAYVERIIGDYGTAYDIFFKPHPADSSSSNYEERFEGLTLLPGQMPFEIFVWSLLDKVDLIGGYSSTVFLTVPVEKTGFIFAANAESLPRPLNVLFRNAEHVRWIQ
B2: SiaT21: sialyltransferase of Vibrio harveyi, acc. WP_017817635, SEQ ID NO: 21 (protein, listed as Vibrio harveyi)
chain: MDSSPENTSSTLEIYIDSATLPSLQHMVKIIDEQSGNKKLINWKRYPIDDELLLDKINALSFSDTTDLTRYMESILLIGDIKRVVINGNSLSNYNIVGVMRSINALGLDLDVEINFYDDGSAEYVRLYNFSQLPEAERELLVSMSKNNILAAVNGIGSYDSGSPENIYGFAQIYPATYHMLRADIFDTDLEIGLIRDILGDNVKQMKWGQFLGFNEEQKELFYQLTSFNPDKIQAQYKESPNKNFVFVGTNSRSATAEQQINIIKEAKKLDSEIIPNSIDGYDLFFKGHPSATYNQQIVDAHDMTEIYNRTPFEVLAMTSSLPDAVGGMGSSLFFSLPKTVETKFIFYKSGTDIESNALIQVMLKLGIITDEKVRFTTDIK
B3: SiaT22: sialyltransferase of Streptococcus entericus, acc. WP_018369230, SEQ ID NO: 13 (protein, listed as Streptococcus entericus)
chain: MKKVYFCHTVYHLLITLCKISVEEQVEIIVFDTVSNHELIVQKIRDVFVNTTVLFAEQNTDFSILEIDRATDIYVFNDWTPIGAYLRKNKLFYHLIEDGYNYHEYNVYANALTMKRRLLNFVLRREEPSGFSRYVRSIEVNRVKYLPNDCRKSKWVEKPRSALFENLVPEHKQKIITIFGLENYQDSLRGVLVLTQPLVQDYWDRDITTEEEQLEFYRQIVESYGEGEQVFFKIHPRDKVDYSSLTNVIFLKKNVPMEVYELIADCHFTKGITHSSTALDFLSCVDKKITLKQMKANS
B4: SiaT17: sialyltransferase of Photobacterium phosphoreum JT-ISH-467, acc. BAF63530, SEQ ID NO: 8 (protein, listed as Photobacterium phosphoreum)
chain: MGCNSDSKHNNSDGNITKNKTIEVYVDRATLPTIQQMTQIINENSNNKKLISWSRYPINDETLLESINGSFFKNRPELIKSLDSMILTNEIKKVIINGNTLWAVDVVNIIKSIEALGKKTEIELNFYDDGSAEYVRLYDFSRLPESEQEYKISLSKDNIQSSINGTQPFDNSIENIYGFSQLYPTTYHMLRADIFETNLPLTSLKRVISNNIKQMKWDYFTTFNSQQKNKFYNFTGFNPEKIKEQYKASPHENFIFIGTNSGTATAEQQIDILTEAKKPDSPIITNSIQGLDLFFKGHPSATYNQQIIDAHNMIEIYNKIPFEALIMTDALPDAVGGMGSSVFFSLPNTVENKFIFYKSDTDIENNALIQVMIELNIVNRNDVKLISDLQ
B5: SiaT24: sialyltransferase of Avibacterium paragaffinarum, acc. WP_021724759, SEQ ID NO: 9 (protein, listed as Avibacterium paragallinarum)
chain: MRKIITFFSLFFSISAWCQKMEIYLDYASLPSLNMILNLVENKNNEKVERIIGFERFDFNKEILNSFSKERIEFSKVSILDIKEFSDKLYLNIEKSDTPVDLIIHTNLDHSVRSLLSIFKTLSPLFHKINIEKLYLYDDGSGNYVDLYQHRQENISAILIEAQKKLKDALENRETDTDKLHSLTRYTWHKIFPTEYILLRPDYLDIDEKMQPLKHFLSDTIVSMDLSRFSHFSKNQKELFLKITHFDQNIFNELNIGTKNKEYKTFIFTGTTTWEKDKKKRLNNAKLQTEILESFIKPNGKFYLGNDIKIFFKGHPKGDDINDYIIRKTGAEKIPANIPFEVLMMTNSLPDYVGGIMSTVYFSLPPKNIDKVVFLGSEKIKNENDAKSQTLSKLMLMLNVITPEQIFFEEMPNPINF
B6: SiaT30: sialyltransferase of Haemophilus parahaemolyticus HK385, acc. EIJ71207, SEQ ID NO: 19 (protein, listed as Haemophilus parahaemolyticus)
chain: MTEQYIKNVEVYLDYATIPTLNYFYHFTENKDDIATIRLFGLGRFNISKSIIESYPEGIIRYCPIIFEDQTAFQQLFITLLTEDSFCQYRFNFHINLFHSWKMLIPLLHIIWQFKHKVLDIKLNFYDDGSEGLVTLSKIEQNYSSEILQKIIDIDSQSFYADKLSFLDEDIARYLWNSLFESHYYLLNDFLLKNEKLSLLKNSIKYCHIMDLERYLQFTQEEKDFFNELLGINIQSLEDKIKIFQQKKTFIFTGTTIFSLPKEEEETLYRLHLNAILNYIHPNGKYFIGDGFTLVIKGHPHQKEMNSRLEKSFEKAVMLPDNIPFEILYLIGCKPDKIGGFVSTSYFSCDKKNIADLLFISARQEEVRKNDYLFNIQYQLRDMMIKTGFIQEEKTHFYSDIPIFIS

experiment: In vitro sialylation of LNT by protein extracts, LST-a/-b quantified by LC-MS/MS; format: biochemical; settings: 5 mM LNT, 10 mM CMP-Neu5Ac, 16 hours, LC-MS/MS; relative quantity; n.d.: not detectable
Protocol: Escherichia coli BL21(DE3) harbouring plamids encoding for 100 sialyltransferases were grown at 30° C. in 100 ml shake flasks filled with 20 ml of 2YT medium supplemented with ampicillin 100 μg ml^−1. When the cultures reached an OD600 of 0.1 to 0.3, gene expression was induced by addition of 0.3 mM IPTG and the incubation was continued for 12 to 16 hours. Cells were harvested by centrifugation and mechanically disrupted in a defined volume of 50 mM Tris-HCl pH7.5 using glass beads. The protein extract was kept on ice until the assay started. The in vitro assay was carried out in a total volume of 25 μl including 50 mM Tris-HCl pH7.5, 5 mM MgCl2, 10 mM CMP-Neu5Ac and 5 mM LNT. The assay started with the addition of 3 μl protein extract and continued for 16 hours. Product formation was determined by mass spectrometry.
Mass spectrometry analysis was performed by MRM (multiple reaction monitoring) using a LC Triple-Quadrupole MS detection system. Precursor ions are selected and analyzed in quadrupole 1, fragmentation takes place in the collision cell using argon as CID gas, selection of fragment ions is performed in quadrupole 3. Chromatographic separation of lactose, 3′-Sialyllactose and 6′-Sialyllactose after dilution of culture supernatant 1:100 with H2O (LC/MS Grade), was performed on a XBridge Amide HPLC column (3.5 μm, 2.1×50 mm (Waters, USA) with a XBridge Amide guard cartridge (3.5 μm, 2.1×10 mm) (Waters, USA). Column oven temperature of the HPLC system was 50° C. The mobile phase was composed of acetonitrile:H2O with 10 mM ammonium acetate. A 1 μl sample was injected into the instrument; the run was performed for 3.60 min with a flow rate of 400 μl/min. 3′-Sialyllactose and 6′-Sialyllactose were analyzed by MRM in ESI positive ionization mode. The mass spectrometer was operated at unit resolution. Sialyllactose forms an ion of m/z 656.2 [M+Na]. The precursor ion of Sialyllactose was further fragmented in the collision cell into the fragment ions m/z 612.15, m/z 365.15 and m/z 314.15. Collision energy, Q1 and Q3 Pre Bias were optimized for each analyte individually. Chromatographic separation of lactose, LNT-II, LNT and LST-a or -b after dilution of particle-free biocatalysis-reaction or crude extract, respectively, 1:50 with H2O (LC/MS Grade), was performed on a XBridge Amide HPLC column (3.5 μm, 2.1×50 mm (Waters, USA) with a XBridge Amide guard cartridge (3.5 μm, 2.1×10 mm) (Waters, USA). Column oven was run at 35° C. The mobile phase was composed of acetonitrile:H2O with 0.1% ammonium hydroxide. A 1 μl sample was injected into the instrument; the run was performed for 3.50 min with a flow rate of 300 μl/min. Lactose, LNT-II, LNT as well as LST-a and -b were analyzed by MRM in ESI negative ionization mode. The mass spectrometer was operated at unit resolution. Lactose forms an ion of m/z 341.00 [M−H]. The precursor ion of Lactose was further fragmented in the collision cell into the fragment ions m/z 179.15, m/z 161.15 and m/z 101.05. LNT-II forms an ion of m/z 544.20 [M−H]. The precursor ion of LNT-II was further fragmented into the fragment ions m/z 382.10, m/z 161.00 and m/z 112.90. LNT forms an ion of m/z 706.20 [M−H]. The precursor ion of LNT was further fragmented into the fragment ions m/z 382.10, m/z 202.10 and m/z 142.00. LST-a and -b forms an ion of m/z 997.20 [M−H]. The precursor ion of LST-a and-b was further fragmented into the fragment ions m/z 290.15, m/z 202.15 and m/z 142.15. Collision energy, Q1 and Q3 Pre Bias were optimized for each analyte individually. Quantification methods were established using commercially available standards (Carbosynth, Compton, UK).
Twenty eight genes were identified to produce LST-a whereas only 6 enzymes synthesized LST-b. […] Irrespectively of the protein overexpression level, sialyltransferases that produced best were selected for determination of Km and Vmax.

Row | Molecule | Relative efficacy of sialyltransferases regarding in-vitro production of sialyllacto-N-tetraoses: LST-a
1 | B1 | 4
2 | B2 | 12
3 | B3 | 564
4 | B4 | 1.24 × 10^3
5 | B5 | 835
6 | B6 | 17

experiment: In vivo screening in E. coli #1363/#1730 with lactose as acceptor, sialyllactose identified by TLC; format: cell-based, Escherichia coli BL21(DE3); settings: 1.5 mM lactose, 72 to 96 hours, qualitative via TLC
Protocol: Escherichia coli BL21(DE3) #1363 and #1730 harbouring plasmids encoding for 100 sialyltransferases were grown at 30° C. in 100 ml shake flasks filled with 20 ml of mineral salts medium (Samain et al., J. Biotech. 1999, 72:33-47) supplemented with 2% (wt/vol) glucose, ampicillin 100 μg ml^−1, kanamycin 15 μg ml^−1 and zeocin 40 μg ml^−1. When the cultures reached an OD600 of 0.1 to 0.3, gene expression was induced by addition of 0.3 mM IPTG. After an incubation for one hour, 1.5 mM lactose was added to #1363 cultures whereas 1.5 mM lactose as well as 1.5 mM sialic acid was added to #1730 cultures. The incubation continued for 72 to 96 hours. Then, cells were harvested by centrifugation and mechanically disrupted in a defined volume using glass beads. Subsequently, samples were applied to thin layer chromatography (TLC) on Silica Gel 60 F254 (Merck KGaA, Darmstadt, Germany). A mixture of butanol:acetone:acetic acid:H2O (35/35/7/23 (v/v/v/v)) was used as mobile phase. For detection of the separated substances, the TLC plate was soaked with thymol reagent (0.5 g thymol solved in 95 ml ethanol, 5 ml sulfuric acid added) and heated.
In the entire screening, thirty two genes were identified to encode for α-2,3-sialyltransferases, thus producing 3′-SL. 19 enzymes synthesized 6′-SL and were depicted as α-2,6-sialyltransferases. An α-2,3- as well as an α-2,6-sialyltransferase activity could only be observed for 3 enzymes. […] The screening appeared highly accurate since the described activities of extensively characterized sialyltransferases, e. g. […] Regarding the product formation, the experimental setting allowed a semi-quantitative comparison of the screened enzymes. But to achieve deeper knowledge about their kinetic properties, the 3 potentially best performing α-2,3- and α-2,6-sialyltransferases were applied to in vitro assays.

Row | Molecule | Production of sialyllactose in-vivo
7 | B1 | 3′-SL
8 | B2 | 3′-SL
9 | B3 | 3′-SL
10 | B4 | 3′-SL
11 | B5 | 3′-SL
12 | B6 | 3′-SL
